Data: patent US10407511B2, “Covalently linked helicar-anti-helicar antibody conjugates and uses thereof” (Hoffmann-La Roche Inc., priority 2014, dated 2019)
Numbered stars: 1 amine (or outer) side, 2 acyl side, 3 side chain; on linkers, the order of the positions; unused ones are H or OH. Square brackets hold non-standard residues; d marks the D form. Ends that are not written are not given here. Pqa = 4-oxo-6-(1-piperazinyl)-3(4H)-quinazoline-acetic acid, O=C(Cn1cnc2ccc(N3CCN([*:1])CC3)cc2c1=O)[*:2]; NMeR = CN[C@@H](CCCNC(=N)N)C(=O)O

Key:
[1] = target: anti-helicar motif amino acid sequence antibody; experiment: binding [Kd] of PYY peptides by anti-helicar antibody; conditions: PYY peptide bound by anti-helicar antibody
NPY2R = target: T1, NPY2R (Homo sapiens, UniProt P49146); experiment: effect on Y2Receptor family: NPY2R; format: cell-based
T1 sequence (P49146 1-381): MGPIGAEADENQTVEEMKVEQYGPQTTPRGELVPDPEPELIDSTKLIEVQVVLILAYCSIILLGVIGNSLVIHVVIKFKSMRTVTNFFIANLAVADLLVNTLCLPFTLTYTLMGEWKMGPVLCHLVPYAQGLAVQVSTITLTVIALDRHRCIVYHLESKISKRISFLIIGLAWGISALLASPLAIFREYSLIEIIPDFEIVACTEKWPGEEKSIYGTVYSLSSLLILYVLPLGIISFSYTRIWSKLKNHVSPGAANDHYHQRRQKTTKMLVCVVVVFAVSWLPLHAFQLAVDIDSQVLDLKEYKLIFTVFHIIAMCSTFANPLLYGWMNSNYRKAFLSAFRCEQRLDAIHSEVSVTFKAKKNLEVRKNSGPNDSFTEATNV

NPY4R = NPY4R (Homo sapiens, UniProt P50391); experiment: effect on Y2Receptor family: NPY4R; format: cell-based
NPY4R, sequence (P50391 whole entry, species assumed): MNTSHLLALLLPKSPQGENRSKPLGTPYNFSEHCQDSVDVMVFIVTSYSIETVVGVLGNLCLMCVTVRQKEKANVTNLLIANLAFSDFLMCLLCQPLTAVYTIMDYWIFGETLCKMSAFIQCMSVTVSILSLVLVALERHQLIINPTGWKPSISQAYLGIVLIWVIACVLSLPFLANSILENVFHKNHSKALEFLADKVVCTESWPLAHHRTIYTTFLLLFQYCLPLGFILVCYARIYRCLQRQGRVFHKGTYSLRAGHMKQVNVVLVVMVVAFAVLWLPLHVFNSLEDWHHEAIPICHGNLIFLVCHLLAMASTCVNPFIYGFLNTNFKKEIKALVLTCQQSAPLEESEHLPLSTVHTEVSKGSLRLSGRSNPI

NPY5R = target: T2, NPY5R (Homo sapiens, UniProt Q15761); experiment: effect on Y2Receptor family: NPY5R; format: cell-based
T2 sequence (Q15761 1-445): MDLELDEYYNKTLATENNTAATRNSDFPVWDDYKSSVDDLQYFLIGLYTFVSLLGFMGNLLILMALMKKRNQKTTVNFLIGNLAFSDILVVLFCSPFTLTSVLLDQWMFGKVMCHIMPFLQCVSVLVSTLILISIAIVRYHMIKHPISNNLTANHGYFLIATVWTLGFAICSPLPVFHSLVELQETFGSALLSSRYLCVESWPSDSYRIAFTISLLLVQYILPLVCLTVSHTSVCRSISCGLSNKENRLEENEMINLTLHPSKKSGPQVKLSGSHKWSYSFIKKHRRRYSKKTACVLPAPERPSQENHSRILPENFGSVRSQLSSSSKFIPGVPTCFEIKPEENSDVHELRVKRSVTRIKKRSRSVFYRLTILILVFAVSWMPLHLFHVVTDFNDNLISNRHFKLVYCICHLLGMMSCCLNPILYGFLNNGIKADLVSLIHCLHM

[2] = Dig-peptide serum kinetic (Western blot of digoxigenylated PYY in serum); format: in vivo, mice (strain NRMI)
Protocol: Serum samples were stored at −80° C.
The determination of the amount of digoxigenylated peptide in the serum at the given time points was difficult compared to the detection of Dig-Cy5 as no direct means to detect the polypeptide in serum samples was available. Therefore, a Western-Blot related assay to detect digoxigenylated peptide in serum was established. In a first step, the serum samples were separated on reducing SDS-PAGE. Because sample preparation included exposure of the serum to high concentrations of SDS and reducing agents, complexed Dig-polypeptide conjugates can become released from the (completely denatured/unfolded) anti-digoxigenin antibody, whereas covalently conjugates remained bound. To mediate the release of the polypeptide from the non-covalent antibody complex and separate the individual components by SDS-PAGE, 2 μl of each serum sample was diluted in 18 μl 20 mM histidine/140 mM NaCl pH 6.0, mixed with 6.7 μl of 4×LDS sample buffer and 3 μl of 10× sample reducing agent (NuPAGE, Invitrogen) for 5 min at 95° C. As a control, 2 μl of serum of an untreated mouse of the same strain was used. Samples were applied to a 4-12% Bis-Tris Gel (NuPAGE, Invitrogen) which was run at 200 V/120 mA for 20 minutes using 1×MES (Invitrogen) as a running buffer. Subsequently, separated polypeptides were blotted onto a PVDF membrane (0.22 μm pore size, Invitrogen) using the XCell Sure Lock® Mini-Cell system (Invitrogen) for 40 min at 25 V/130 mA. Membranes were blocked in 1% skim milk in 1×PBS+1% Tween20 (PBST) for 1 h at RT. Digoxigenylated polypeptides were subsequently detected on the membrane with an anti-digoxigenin antibody. For that, anti-digoxigenin antibody was applied to the membranes in a concentration of 13 μg/ml in 10 ml of 1% skim milk/PBST for 2 h at RT. Membranes were washed for 3×5 min in 1×PBST. Anti-mouse IgG Fab-fragments coupled to POD from the LumiLight^PLUS Western Blotting Kit (Roche) was applied in a 1:25 dilution in 10 ml of 1% skim milk/PBST for 1 h at RT. […] Chemiluminescence was detected with the LumiImager F1 (Roche) with an exposure time of 20 min.

NPY1R = target: T3, NPY1R (Homo sapiens, UniProt P25929); experiment: effect on Y2Receptor family: NPY1R; format: cell-based
T3 sequence (P25929 1-384): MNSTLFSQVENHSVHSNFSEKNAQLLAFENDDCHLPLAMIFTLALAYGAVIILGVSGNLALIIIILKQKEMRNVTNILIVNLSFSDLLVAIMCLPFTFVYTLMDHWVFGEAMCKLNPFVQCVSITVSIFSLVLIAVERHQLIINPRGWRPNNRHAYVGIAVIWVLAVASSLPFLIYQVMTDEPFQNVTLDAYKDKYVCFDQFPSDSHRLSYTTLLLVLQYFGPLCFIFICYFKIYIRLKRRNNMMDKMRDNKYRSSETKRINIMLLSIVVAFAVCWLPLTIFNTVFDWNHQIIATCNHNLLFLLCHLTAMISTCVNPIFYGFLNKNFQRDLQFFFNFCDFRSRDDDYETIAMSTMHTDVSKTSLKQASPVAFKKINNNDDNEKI

Substance | Kd [1] [nM] | NPY2R (NPY2R) [nM] | NPY4R (NPY4R) | NPY5R (NPY5R) | digoxigenylated polypeptide signal in serum ([2]; 5 min after administration) | digoxigenylated polypeptide signal in serum ([2]; later time points up to 24 hrs.) | half-life in the serum ([2]; mouse, in vivo) | NPY1R (NPY1R)
IKPEAPGEDASPEAHLANEVARLHYLNLVTRQRY-NH2 [PYY_helicar] | 12 | 6.38 | inactive | inactive | – | – | – | –
DIG-PYY: digoxigenylated PYY polypeptide | – | – | – | – | only in trace amounts | no defined polypeptide band was detectable | very short half-life | –
Ac-Ile-Lys-Pqa-Arg-His-Tyr-Leu-Asn-Trp-Val-Thr-Arg-Gln-(NMe)-Arg-Try-NH2 * 4 HOAc (Ac-IK[Pqa]RHYLNWVTRQ[NMeR]Y-NH2; also: 4 HOAc salt) [reference compound] | – | 1.0 | inactive | inactive | – | – | – | inactive
